# Source: paper PMC4769171
# Residue numbers refer to the chain shown, from its start.
# Key:
# Conditions in all cases: EMSA: 10 mM Tris pH 7.5, 50 mM KCl, 2.5% glycerol, 0.05% Nonidet P-40, 1 ug poly(dI-dC), 5 fmol probe, 20 min RT; AFM buffer not in the material
# [1] = biological target: T1, K179A His-SsrB K179A (UniProt Q7CQM5); experiment: EMSA
# T1 sequence: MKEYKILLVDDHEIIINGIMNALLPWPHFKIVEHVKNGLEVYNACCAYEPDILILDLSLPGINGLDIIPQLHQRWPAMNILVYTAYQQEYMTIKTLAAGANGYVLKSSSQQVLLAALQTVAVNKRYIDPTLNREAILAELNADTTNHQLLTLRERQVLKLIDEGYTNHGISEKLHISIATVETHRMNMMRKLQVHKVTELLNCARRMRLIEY
# [2] = biological target: T2, His-SsrB (unphosphorylated) (UniProt Q7CQM5); experiment: EMSA
# T2 sequence: T1 sequence with A179K
# [3] = biological target: T3, His-H-NS (Salmonella Typhimurium) (UniProt P0A1S2); experiment: EMSA
# T3 sequence: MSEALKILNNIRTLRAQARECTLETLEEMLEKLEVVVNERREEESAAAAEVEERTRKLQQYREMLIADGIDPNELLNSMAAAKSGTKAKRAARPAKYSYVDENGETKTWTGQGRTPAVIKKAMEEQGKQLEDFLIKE
# [4] = biological target: His-SsrB (unphosphorylated);His-H-NS (Salmonella Typhimurium) (UniProt Q7CQM5+P0A1S2); experiment: EMSA supershift
sequence,measurement,setting,value
AATATTTTTCTCTTTCTGGATAATGGGCTATTTCAACCCACAGCAGTGCAACATCTGTCAGTACTTCTGGTGCCTTTATTTTATGGGGGCAGCTGTCAGATGTGCGATTAAAAAAAGTGGAGTTTCATCA (double strand) [csgD122],binding,[1],no binding
same,binding,[2],binds
same,binding,[3],binds
same,binding,[4],binds
